Consider 11 molecules from patent US20230029635A1 (US Dept. of Health and Human Services, published 2023).

The chains are these.
B1: d301 (Fab, V domains shown)
VH: QSLEESGGRLVTPGTPLTLTCTVSGFSLSTYTLGWVRQAPGKGLEYIGWIDSSGSAYYASWAKGRFTISKASSTTVDLKMAGLTTEDTATYFCASGNTGGDPLYYGMDPWGPGTLVTVSS
VL: DPVLTQTPSSTSAAVGGTVTIKCQASQNIGRWLAWYQQKPGQPPKLLIYRASDLASGVPSRFKGSGSGTQFTLTISGVQREDAATYYCLGSYSSSDSAFGGGTEVVVK
notes: Chimeric rabbit/human Fab, kappa, with 6xHis tag; also called Fab d301; d301 r/h-IgG1k
B2: 3N07 (Fab, V domains shown)
VH: B1 VH with T30R, L33M, G34A, A56T, A71T, A81T, G82S, T98D
VL: DGVMTQTPSSTSAAVGGTVTIKCQASQSIRSWLSWYQQKPGQPPKLLIYEASKLASGVPSRFKGSRSGTEYTLAISGVQREDAATYYCLGSIASDDTAFGAGTNVEIK
notes: Chimeric rabbit/human Fab, kappa, with 6xHis tag; also called Fab 3N07; 3N07 r/h-IgG1k
B3: 4S12 (Fab, V domains shown)
VH: QEQLVESGGRLVTPGTPLTLTCTVSGFSLSSYHMSWVRQAPGKGLEWIGIIYFTGDASYASWAKGRFTISKTSPTTVDLKITSPTTEDTATYFCARDTDWNSSRTIPFDPWGPGTLVTVSS
VL: SFVLTQPASVQVNLGQTVSLTCTADTLSRTYASWYQQKPGQAPVLLIYRDTSRPSGVPDRFSGSSSGNTATLTISGAQAGDEADYYCATSDGSGSSYQYVFGGGTQLTVTG
notes: Chimeric rabbit/human Fab, lambda, with 6xHis tag
B4: 3NS3 (Fab, V domains shown)
VH: QSLEESGGGLVTPGTPLTLTCTVSGIDLSAYAMTWVRQAPGKGLEWIGMISTDGATYYASWAKGRFTISKTSTTADLTITSPTTEDTATYFCARGLTNFFIWGPGTLVTISS
VL: QPVLTQSPSASATLGSSAKLTCTLSSAHSTYTIAWYQQKQGESPRCLMYLKSDGSYTRGTGVPDRFSGSSSGADRYLIIPNVQADDEADYYCGADYSGGYLFGGGTQLTVTG
notes: as for B3
B5: 3NS1 (Fab, V domains shown)
VH: QSVEESGGRLVTPGTPLTLTCTVSGFSLSNYIITWVRQAPGKGLEWIGMISTDGDTYYANWAKGRFTISKTSTTANLKITSPTTEDTATYFCARGLTNFFIWGPGTLVTVSS
VL: QPVLTQSPSVSAALGASAKLTCTLSSAHKTYSIGWYQQHQGEAPRFLMQLRRDGSYTKGTGVPDHFSGSSSGADRYLIIPNVQADDEADYYCGVDYDGGYVFGGGTQLTVTG
notes: Chimeric rabbit/human Fab, lambda, with 6xHis tag; also called 3NS1 r/h-IgG1λ
B6: 4S10 (Fab, V domains shown)
VH: B5 VH with G7R, F26I, S27D, N30S, Y31S, I32A, D55A, I68F, N76D, F100S
VL: QPVLTQSPSASAALGASAKLTCTLSSAHKTYTIAWYQQQPGESPRYLMLLKSDGSYTRGPGVPDRFSGSSSGADRYLIIPSVQADDEAGYYCGADYNGGYVFGGGTQLTVTG
notes: as for B3
B7: 3NS2 (Fab, V domains shown)
VH: QSVEESGGRLVTPGTPLTLTCTVSGIDLSSYSMGWVRQAPGKGLEWIGIIYNTGRIDYANWAKGRFTISKTSTTVDLKITSPTIGDTATYFCGRGYPGDIWGPGTLVTVSS
VL: DVVMTQTPSSVSAAVGGTVTIKCQASESIYSDLAWYQQKPGQRPKLLIYFASTLASGVPSRFKGSGSGTEYTLTISGVQREDAATYYCLGDYGNSWAFGAGTKVEIK
notes: as for B3
B8: 5S8 (Fab, V domains shown)
VH: QSVEESGGRLVTPGTPLTLTCTVSGFSLSSYAMTWVRQAPGKGLEWIGVIGTSGMRYYANWAKGRFTISKTSTTVDLKITSPTTEDTATYFCARANFYVGNDESTDAFDPWGPGTLVTVSS
VL: ALVMTQTPPSLSASVGETVRIRCLASEDIYNTISWYQQKPGKPPTLLIYGASNLKSGVPPRFSGSGSGTDYTLTIGGVQSEDAATYYCLGGYSYSSTGLTFGAGTKVEIK
notes: Chimeric rabbit/human Fab, kappa, with 6xHis tag in SPR, zymosan and JeKo-1 assays; also called Fab 5S8; 5S8 r/h-IgG1k
B9: 3N02 (Fab, V domains shown)
VH: QKQLVESGGRLVTPGGSLTLTCTISGIDLNTYGMTWVRQAPGKGLEYIGIIVSSGNTYYANWAQGRFTISKTSTTVDLKMTSLTASDTATYFCARGLGRAYSSGYGMDGWGPGTLVTVSS
VL: DPVLTQTPSSTSAAVGGTVTIKCQASQNIYTSLAWYQQKPGQPPKLLIYGASNLASGVPSRFKGSRSGTEYTLTISGVEREDAATYYCLGSYTQIDTTFGGGTKLEIK
notes: Chimeric rabbit/human Fab (rabbit variable domains, human kappa constant domain) with 6xHis tag in SPR, zymosan ELISA and flow cytometry; also called 3N02 r/h-IgG1k
B10: MN66 (Fab, V domains shown)
VH: QSVEESGGRLVTPGTPLTLTCTVSGFSLSSYAMSWVRQAPGKGLEWIGIIYPNDITYYASWAKGRFTISKTSTTVDLKITSPTTEDTATYFCARVVSWPGYTTEYYFNIWGPGTLVTISS
VL: QFVLTQPQSVSGSLGQTVSMSCKCDSGNIDNYYVHWYQQHPGKAPTTVIYNDDQRPSGVPDRFSGSIDSTSNSASLTITGLLAEDEADYYCLSSVSSDNYVFGGGTQLTVTG
notes: Lambda
B11: 4S04 (Fab, V domains shown)
VH: QEQLKESGGRLVTPGTPLTLTCTASGFSLSTYAMIWVRQAPGKGLEYIGIISYGGSAYYASWAKGRFTISKTSTTVDLKITSPTTEDTATYFCARDRGFGYGYGIGYYGLDPWGPGTLVTVSS
VL: DGVMTQTPSSTSAAVEGTVTINCQASQSIGSYLSWYQQKPGQPPKLLIYQASKMASGVPSRFKGSGSGTQFTLTISNVQGEDAATYYCLGHYVGDWSFGAGTKVEIK
notes: Chimeric rabbit/human Fab, kappa, with 6xHis tag

Where a chain is given by its changes, count along the chain named.

T1 sequence (P01024 other isoform, or with tags, fused parts or gaps, form in doubt): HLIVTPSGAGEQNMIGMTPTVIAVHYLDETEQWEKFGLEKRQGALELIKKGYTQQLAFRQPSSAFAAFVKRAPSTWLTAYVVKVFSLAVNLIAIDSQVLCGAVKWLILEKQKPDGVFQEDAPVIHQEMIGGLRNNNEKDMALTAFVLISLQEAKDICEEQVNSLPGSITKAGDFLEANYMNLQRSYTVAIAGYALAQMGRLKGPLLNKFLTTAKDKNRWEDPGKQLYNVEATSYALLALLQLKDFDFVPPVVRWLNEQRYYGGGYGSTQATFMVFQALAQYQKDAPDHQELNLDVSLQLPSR
T2 sequence (P01027 other isoform, or with tags, fused parts or gaps): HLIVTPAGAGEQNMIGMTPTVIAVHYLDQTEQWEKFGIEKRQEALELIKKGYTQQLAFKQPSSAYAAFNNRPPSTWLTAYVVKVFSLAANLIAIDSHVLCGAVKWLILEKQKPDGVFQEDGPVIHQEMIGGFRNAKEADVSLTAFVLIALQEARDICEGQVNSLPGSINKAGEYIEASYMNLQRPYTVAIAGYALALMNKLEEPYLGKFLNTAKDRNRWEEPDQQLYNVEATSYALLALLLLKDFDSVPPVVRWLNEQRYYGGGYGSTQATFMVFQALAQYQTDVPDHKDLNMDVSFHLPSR

The first assay addresses T1, hFc-hC3d (human, UniProt P01024 1002-1303).
T1 construct: range 1002-1303; expressed in HEK293F cells, purified on Protein A; also called hFc-hC3d fusion protein; not shown: human Fc of vector pCEP4-hFc
The experiment in a line: Table 3, column Human C3d; the SPR Kd on hFc-hC3d of Table 2. The protocol: (§1) Surface plasmon resonance (SPR) for the measurement of kinetic and thermodynamic parameters of the binding of purified antibodies to hC3d or mC3d antigens was performed on a Biacore X100 instrument using Biacore reagents and software (GE Healthcare, Chicago, Ill.). A mouse anti-human IgG CH2 mAb was immobilized on a CM5 sensor chip using reagents and instructions supplied with the Human Antibody Capture Kit (GE Healthcare). hFc-hC3d and hFc-mC3d fusion proteins were captured at a density not exceeding 400 RU. Each sensor chip included an empty flow cell for instantaneous background depletion. All binding assays used 1×HBS-EP+ running buffer (10 mM HEPES, 150 mM NaCl, 3 mM EDTA (pH 7.4), and 0.05% (v/v) surfactant P20) and a flow rate of 30 μL/min. All of the Fabs were injected at five different concentrations (dilution factor was 2), and the lowest concentration was tested in duplicates. The sensor chips were regenerated with 3 M MgCl₂ from the Human Antibody Capture Kit without any loss of binding capacity. Calculation of association (kₒₙ) and dissociation (koff) rate constants was based on a 1:1 Langmuir binding model. The equilibrium dissociation constant (KD) was calculated from koff/kₒₙ.
What is called Kd is a measure of binding affinity in units of concentration. A high value points to lower affinity. Molecule B1 registered a Kd of 0.99 nM.

Another assay concerns the target T2, hFc-mC3d (mouse, UniProt P01027 1002-1303).
T2 construct: domain: C3d; also called hFc-mC3d fusion protein; not shown: human Fc of vector pCEP4-hFc
The experiment in a line: Table 3, column Mouse C3d; the SPR Kd on hFc-mC3d of Table 2. As to the method:
as §1
B2: the affinity, expressed as Kd, was 132 nM.

A further assay has as its target T2, hFc-mC3d. The assay is described as follows: SPR, hFc-mC3d captured by anti-human IgG CH2 mAb, Fab injected. Background: SPR reads the build-up and loss of mass on a sensor chip optically.
Regarding B3, the binding result is “no binding”.
Still for that read-out and setting: in the case of B4 it was “no binding”; in that of B5, “no binding”; in that of B6, “no binding”.
Turning to B7, the binding result is given as “no binding”.

The next assay concerns the target T1, hFc-hC3d. The experiment in a line: Table 3, column Human C3d; rounded form of the SPR Kd on hFc-hC3d of Table 2. As to the method: as §1
B2 showed a dissociation constant Kd of 3.1 nM.
On the same count and under the same terms, in the case of B8 it was 3.4 nM; in that of B9, 13 nM.

Another assay deals with T2, hFc-mC3d. The assay is described as follows: Table 3, column Mouse C3d; rounded form of the SPR Kd on hFc-mC3d of Table 2. As to the method: as §1
Regarding B1, the dissociation constant (Kd) amounted to 23 nM.
B8 returned a Kd of 9 nM.
B9: the Kd amounted to 98 nM.

The target of another assay is T1, hFc-hC3d. The experiment in a line: SPR (Biacore X100), hFc-hC3d captured by anti-human IgG CH2 mAb, Fab injected, 1:1 Langmuir. The protocol: as §1
Molecule B10 displayed a Kd of 0.31 nM.
B2 displayed a Kd of 3.1 nM.
B1 came in with a dissociation constant (Kd) of 0.99 nM.
On the same count and under the same terms, in the case of B8 it was 3.35 nM.
As to B9, binding was put at a Kd of 13.3 nM.
With B11, the Kd worked out at 4.11 nM.

In the next assay the target is T2, hFc-mC3d. The experiment in a line: SPR (Biacore X100), hFc-mC3d captured by anti-human IgG CH2 mAb, Fab injected, 1:1 Langmuir. The protocol:
as §1
In the case of B2, the Kd was found to be 132 nM.
With B1, the affinity, expressed as Kd, was 22.9 nM.
On the same count and under the same terms, to B8 belongs 9.04 nM; to B9, 97.6 nM.

A further assay deals with T3, Mouse C3b/iC3b/C3d deposited on zymosan particles (mouse, UniProt P01027 1002-1303, limits assumed).
T3 construct: also called Zymosan deposited C3b/iC3b/(C3d) mouse
T3 sequence (P01027 1002-1303 limits assumed): as the sequence (P01027 other isoform, or with tags, fused parts or gaps) above, with A9C counted along it
The assay is described as follows: flow cytometry: His-tagged Fab at 5 µg/mL on zymosan particles opsonized with 50% mouse serum, mouse anti-6xHis Alexa Fluor 488. The protocol:
One million zymosan particles deposited with C3b/iC3b/C3d were added into one well of a V-bottom 96-well plate. Then 500 ng/100 μL of antibody was applied in each well at 37° C. for 1 h. After washing three times by phosphate buffered saline and TWEEN™ 20 (PBST), 100 μL of a 1:1000 dilution of a mouse anti-His tag mAb conjugated to ALEXA FLUOR™ 488 (Qiagen, Hilden, Germany) in 1% (w/v) bovine serum albumin (BSA)/DPBS was used to detect the antibody.
The cross reactivity of 5 μg/mL of antibodies of the invention with 6xHis tag to human, or cynomolgus, or mouse C3b/iC3b/C3d deposited on zymosan particles after incubation with 50% corresponding serum at 37° C. for 45 min was determined by flow cytometry with a secondary mouse anti-HIS mAb conjugated to ALEXA FLUOR™ 488. […] In Table 3, the relative level of affinity is shown by the number of plus or minus signs (e.g., +++=high affinity). m/h and r/h denote […], respectively, variable domains fused human constant domains; k, kappa light chain; λ, lambda light chain.
On the technique in general: A flow cytometer gives signals particle by particle.
As for B3, the binding result is “no binding (tested: 5 µg/mL)”.
With B4, the binding result is “no binding (tested: 5 µg/mL)”.
Same read-out and setting: in the case of B5 it was “no binding (tested: 5 µg/mL)”; in that of B7, “no binding (tested: 5 µg/mL)”.

The target in a further assay is T4, Jeko1 cell line deposited C3d (human, UniProt P01024 1002-1303, limits assumed).
T4 construct: domain: C3d; also called human C3d on JeKo-1 cells
T4 sequence (P01024 1002-1303 limits assumed): as the sequence (P01024 other isoform, or with tags, fused parts or gaps, form in doubt) above, with A9C counted along it
The assay is described as follows: flow cytometry: Fab at 2.5 µg/mL on JeKo-1 cells opsonized with 10 µg/mL rituximab and incubated with 50% C5-depleted human serum for 2 h with 0.5 U/mL CR1 or for 24 h (C3b/iC3b decayed to C3d). As to the method: FIG. 13 is a graph showing the binding activity of antibodies of the invention to different human C3 fragments. The binding of each chimeric rabbit/human Fab at 2.5 μg/mL to C3b/iC3b/(C3d), or C3d was determined by flow cytometry against JeKo-1 cells deposited with human C3 fragments after opsonization by 10 μg/mL rituximab (RTX) followed by incubation with 50% CS-depleted human serum for 2 h with or without 0.5 U/mL CR1 or 24 h. In the presence of CR1 or after treatment with serum for 24 h, most of C3 fragments had decayed from C3b/iC3b to C3d.
To deposit C3 fragments on zymosan, one hundred million of preactivated zymosan particles (Complement Technology, Inc.) were washed and then incubated with 50% pooled normal human complement serum (PNHCS) or normal BALB/c mouse or cynomolgus complement serum in 1 mL Dulbecco's phosphate-buffered saline (DPBS) at 37° C. for 1 h. For JeKo-1 cells, 10 μg/mL rituximab (RTX) was first used to opsonize cells followed by incubation with 50% CS-depleted PNHCS. To allow C3b/iC3b deposited on JeKo-1 cells to decay to C3d, the incubation time of cells with serum was prolonged to 24 h, or 0.5 U/mL CR1 (rhCD35, R&D Systems, Minneapolis, Minn.) was included during the incubation. […]
As for B5, the binding result is listed as “binds”.
